In publication PMC6459899, “Pleiotropic Clostridioides difficile Cyclophilin PpiB Controls Cysteine-Tolerance, Toxin Production, the Central Metabolism and Multiple Stress Responses” (Frontiers in Pharmacology, 2019):

Target: CdPpiB wild type fused to the T25 subunit of adenylate cyclase (pKNTB) (C. difficile str. 630Δerm) (UniProt Q18D70)
Experiment: two-hybrid; BACTH in E. coli BTH101; β-galactosidase assay (ONPG, 12 min, 30°C) in Miller Units, cultures grown o/n at 30°C with 0.5 mM IPTG

Lrp P87A fused to the T18 subunit of adenylate cyclase (natural protein)
β-galactosidase activity: 869 MU
